Reference: patent US20120316071A1
Values belong to the binder of their own block, whether it stands above or below them.

Columns and labels:
[1] = target: rHuman EGF R/Fc Chimera, CF (R&D Systems Cat#344-ER) (human) (UniProt P00533); assay: MSD Multispot ECL, antigen spotted on plate, Fab at 15 nM; blank spot 261
[2] = target: rHuman ErbB2/Fc Chimera, CF (R&D Systems Cat#1129-ER) (human) (UniProt P04626); assay: as above
[3] = target: rHuman HGF R/c-MET/Fc Chimera, CF (R&D Systems Cat#358-MT/CF) (human) (UniProt P08581); assay: as above
Sequence of rHuman HGF R/c-MET/Fc Chimera, CF (R&D Systems Cat#358-MT/CF) (human) (P08581 25-932, change not shown): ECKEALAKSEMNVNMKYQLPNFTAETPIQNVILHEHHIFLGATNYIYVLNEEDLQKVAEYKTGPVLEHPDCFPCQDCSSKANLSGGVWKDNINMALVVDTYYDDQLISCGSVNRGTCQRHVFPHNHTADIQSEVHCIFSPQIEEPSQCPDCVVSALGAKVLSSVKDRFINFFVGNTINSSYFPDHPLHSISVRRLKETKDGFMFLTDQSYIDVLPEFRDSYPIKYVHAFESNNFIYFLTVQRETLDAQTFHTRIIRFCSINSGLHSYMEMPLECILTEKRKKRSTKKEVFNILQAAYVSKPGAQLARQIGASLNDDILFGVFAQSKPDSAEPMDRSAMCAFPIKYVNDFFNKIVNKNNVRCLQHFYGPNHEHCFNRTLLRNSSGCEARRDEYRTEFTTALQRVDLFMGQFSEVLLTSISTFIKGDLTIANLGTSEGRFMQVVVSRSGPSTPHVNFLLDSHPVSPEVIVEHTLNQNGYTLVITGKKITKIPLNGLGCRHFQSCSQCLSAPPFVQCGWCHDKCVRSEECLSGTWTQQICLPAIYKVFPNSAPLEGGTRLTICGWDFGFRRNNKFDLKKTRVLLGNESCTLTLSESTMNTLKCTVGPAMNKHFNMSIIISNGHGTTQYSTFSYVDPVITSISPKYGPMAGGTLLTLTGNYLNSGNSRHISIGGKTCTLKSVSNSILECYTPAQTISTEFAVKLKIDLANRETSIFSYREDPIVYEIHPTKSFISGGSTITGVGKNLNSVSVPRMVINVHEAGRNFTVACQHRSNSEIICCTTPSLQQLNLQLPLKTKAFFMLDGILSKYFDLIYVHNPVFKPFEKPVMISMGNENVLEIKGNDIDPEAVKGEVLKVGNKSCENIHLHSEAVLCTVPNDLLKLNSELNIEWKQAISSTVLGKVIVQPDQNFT

[4] = target: rHuman IGF-1 sR, (IGF-1 sR), CF (R&D Systems Cat#391-GR) (human) (UniProt P08069); assay: as above
[5] = target: rHuman EGF R/Fc Chimera, CF (R&D Systems Cat#344-ER) (human) (UniProt P00533); assay: MSD Multispot ECL, antigen spotted on plate, Fab at 30 nM; blank spot 213
[6] = target: rHuman ErbB2/Fc Chimera, CF (R&D Systems Cat#1129-ER) (human) (UniProt P04626); assay: as above
[7] = target: rHuman HGF R/c-MET/Fc Chimera, CF (R&D Systems Cat#358-MT/CF) (human) (UniProt P08581); assay: as above
[8] = target: rHuman IGF-1 sR, (IGF-1 sR), CF (R&D Systems Cat#391-GR) (human) (UniProt P08069); assay: as above
[9] = target: rHuman EGF R/Fc Chimera, CF (R&D Systems Cat#344-ER) (human) (UniProt P00533); assay: MSD Multispot ECL, antigen spotted on plate, Fab at 60 nM; blank spot 237
[10] = target: rHuman ErbB2/Fc Chimera, CF (R&D Systems Cat#1129-ER) (human) (UniProt P04626); assay: as above
[11] = target: rHuman HGF R/c-MET/Fc Chimera, CF (R&D Systems Cat#358-MT/CF) (human) (UniProt P08581); assay: as above
[12] = target: rHuman IGF-1 sR, (IGF-1 sR), CF (R&D Systems Cat#391-GR) (human) (UniProt P08069); assay: as above
[13] = target: rHuman EGF R/Fc Chimera, CF (R&D Systems Cat#344-ER) (human) (UniProt P00533); assay: MSD Multispot ECL, antigen spotted on plate, Fab at 120 nM; blank spot 363
[14] = target: rHuman ErbB2/Fc Chimera, CF (R&D Systems Cat#1129-ER) (human) (UniProt P04626); assay: as above
[15] = target: rHuman HGF R/c-MET/Fc Chimera, CF (R&D Systems Cat#358-MT/CF) (human) (UniProt P08581); assay: as above
[16] = target: rHuman IGF-1 sR, (IGF-1 sR), CF (R&D Systems Cat#391-GR) (human) (UniProt P08069); assay: as above
[17] = target: rHuman EGF R/Fc Chimera, CF (R&D Systems Cat#344-ER) (human) (UniProt P00533); assay: MSD Multispot ECL, antigen spotted on plate, Fab at 240 nM; blank spot 316
[18] = target: rHuman ErbB2/Fc Chimera, CF (R&D Systems Cat#1129-ER) (human) (UniProt P04626); assay: as above
[19] = target: rHuman HGF R/c-MET/Fc Chimera, CF (R&D Systems Cat#358-MT/CF) (human) (UniProt P08581); assay: as above
[20] = target: rHuman IGF-1 sR, (IGF-1 sR), CF (R&D Systems Cat#391-GR) (human) (UniProt P08069); assay: as above
[21] = target: rHuman EGF R/Fc Chimera, CF (R&D Systems Cat#344-ER) (human) (UniProt P00533); assay: MSD Multispot ECL, antigen spotted on plate, Fab at 3.8 nM; blank spot 198
[22] = target: rHuman ErbB2/Fc Chimera, CF (R&D Systems Cat#1129-ER) (human) (UniProt P04626); assay: as above
[23] = target: rHuman HGF R/c-MET/Fc Chimera, CF (R&D Systems Cat#358-MT/CF) (human) (UniProt P08581); assay: as above
[24] = target: rHuman IGF-1 sR, (IGF-1 sR), CF (R&D Systems Cat#391-GR) (human) (UniProt P08069); assay: as above
[25] = target: rHuman EGF R/Fc Chimera, CF (R&D Systems Cat#344-ER) (human) (UniProt P00533); assay: MSD Multispot ECL, antigen spotted on plate, Fab at 480 nM; blank spot 362
[26] = target: rHuman ErbB2/Fc Chimera, CF (R&D Systems Cat#1129-ER) (human) (UniProt P04626); assay: as above
[27] = target: rHuman HGF R/c-MET/Fc Chimera, CF (R&D Systems Cat#358-MT/CF) (human) (UniProt P08581); assay: as above
[28] = target: rHuman IGF-1 sR, (IGF-1 sR), CF (R&D Systems Cat#391-GR) (human) (UniProt P08069); assay: as above
[29] = target: rHuman EGF R/Fc Chimera, CF (R&D Systems Cat#344-ER) (human) (UniProt P00533); assay: MSD Multispot ECL, antigen spotted on plate, Fab at 7.5 nM; blank spot 217
[30] = target: rHuman ErbB2/Fc Chimera, CF (R&D Systems Cat#1129-ER) (human) (UniProt P04626); assay: as above
[31] = target: rHuman HGF R/c-MET/Fc Chimera, CF (R&D Systems Cat#358-MT/CF) (human) (UniProt P08581); assay: as above
[32] = target: rHuman IGF-1 sR, (IGF-1 sR), CF (R&D Systems Cat#391-GR) (human) (UniProt P08069); assay: as above
[33] = target: rHuman ErbB2/Fc Chimera (human) (UniProt P04626); assay: ECL (MSD) multispot assay, antigen spotted; blank spot of this row 236
[34] = target: Recombinant Human DLL4 (R&D Systems Cat#1506-D4/CF) (human) (UniProt Q9NR61); assay: ELISA, DLL4 coated on plate, Fab at […] (cells of this row shifted one column left)
[35] = target: rHuman ErbB2/Fc Chimera (human) (UniProt P04626); assay: ECL (MSD) multispot assay, antigen spotted; blank spot of this row 223
[36] = target: rHuman EGF R/Fc Chimera, CF (R&D Systems Cat#344-ER) (human) (UniProt P00533); assay: ECL multispot (MSD) binding assay, antigen spotted on plate, Fab 0.04 uM
[37] = target: rHuman ErbB2/Fc Chimera, CF (R&D Systems Cat#1129-ER) (human) (UniProt P04626); assay: as above

ECL signal [1]: 584
ECL signal [2]: 713
ECL signal [3]: 694
ECL signal [4]: 705
ECL signal [5]: 585
ECL signal [6]: 726
ECL signal [7]: 640
ECL signal [8]: 697
ECL signal [9]: 679
ECL signal [10]: 777
ECL signal [11]: 623
ECL signal [12]: 654
ECL signal [13]: 658
ECL signal [14]: 822
ECL signal [15]: 785
ECL signal [16]: 813
ECL signal [17]: 690
ECL signal [18]: 833
ECL signal [19]: 834
ECL signal [20]: 625
ECL signal [21]: 511
ECL signal [22]: 714
ECL signal [23]: 519
ECL signal [24]: 463
ECL signal [25]: 877
ECL signal [26]: 965
ECL signal [27]: 951
ECL signal [28]: 741
ECL signal [29]: 582
ECL signal [30]: 695
ECL signal [31]: 558
ECL signal [32]: 642
B1: Fab VH6-1_IGHD3-3*01_IGHJ4*01 & V4-3_IGLJ4*01 (Fab, V domains shown)
VH: QVQLQQSGPGLVKPSQTLSLTCAISGDSVSSNSAAWNWIRQSPSRGLEWLGRTYYRSKWYNDYAVSVKSRITINPDTSKNQFSLQLNSVTPEDTAVYYCAREYYDFWSGYYTDYFDYWGQGTLVTVSS
VL: QPVLTQPTSLSASPGASARLTCTLRSGINLGSYRIFWYQQKPESPPRYLLSYYSDSSKHQGSGVPSRFSGSKDASSNAGILVISGLQSEDEADYYCMIWHSSASFVFGGGTQLIIL

ECL signal [35]: 1090
B4: Fab VH5-51_IGHD5-18*01>3_IGHJ4*01 G100K/G104T S84L & V3-4_IGLJ1*01 (Fab, V domains shown)
VH: EVQLVQSGAEVKKPGESLKISCKGSGYSFTSYWIGWVRQMPGKGLEWMGIIYPGDSDTRYSPSFQGQVTISADKSISTAYLQWLSLKASDTAMYYCARRKYSYTYDYFDYWGQGTLVTVSS
VL: QTVVTQEPSFSVSPGGTVTLTCGLSSGSVSTSYYPSWYQQTPGQAPRTLIYSTNTRSSGVPDRFSGSILGNKAALTITGAQADDESDYYCVLYMGSGISYVFGTGTKVTVL

ECL signal [36]: 1060
ECL signal [37]: 1290
B5: Fab VH5-51_IGHD5-18*01>3_IGHJ4*01 G100K/G104T (H:KT) & V3-4_IGLJ1*01 G97A (Fab, V domains shown)
VH: EVQLVQSGAEVKKPGESLKISCKGSGYSFTSYWIGWVRQMPGKGLEWMGIIYPGDSDTRYSPSFQGQVTISADKSISTAYLQWSSLKASDTAMYYCARRKYSYTYDYFDYWGQGTLVTVSS
VL: QTVVTQEPSFSVSPGGTVTLTCGLSSGSVSTSYYPSWYQQTPGQAPRTLIYSTNTRSSGVPDRFSGSILGNKAALTITGAQADDESDYYCVLYMGSAISYVFGTGTKVTVL

Further lines, the binder ahead of its results:

B2: Fab VH5-51_IGHD5-18*01>3_IGHJ4*01 G100K/G104T S84V & V3-4_IGLJ1*01 (Fab, V domains shown)
VH: EVQLVQSGAEVKKPGESLKISCKGSGYSFTSYWIGWVRQMPGKGLEWMGIIYPGDSDTRYSPSFQGQVTISADKSISTAYLQWVSLKASDTAMYYCARRKYSYTYDYFDYWGQGTLVTVSS
VL: QTVVTQEPSFSVSPGGTVTLTCGLSSGSVSTSYYPSWYQQTPGQAPRTLIYSTNTRSSGVPDRFSGSILGNKAALTITGAQADDESDYYCVLYMGSGISYVFGTGTKVTVL
ECL signal [33]: 1040

B3: Fab VH5-51_IGHD5-18*01>3_IGHJ4*01 G100K/G104T S28R (H:KT S28R) & V3-4_IGLJ1*01 M94R/S96M (L:RM) (Fab, V domains shown)
VH: EVQLVQSGAEVKKPGESLKISCKGSGYRFTSYWIGWVRQMPGKGLEWMGIIYPGDSDTRYSPSFQGQVTISADKSISTAYLQWSSLKASDTAMYYCARRKYSYTYDYFDYWGQGTLVTVSS
VL: QTVVTQEPSFSVSPGGTVTLTCGLSSGSVSTSYYPSWYQQTPGQAPRTLIYSTNTRSSGVPDRFSGSILGNKAALTITGAQADDESDYYCVLYRGMGISYVFGTGTKVTVL
ELISA signal [34]: 0.001
